Experimental data from article PMC10558600 (Heliyon, 2023).
Read-outs that look alike come from different tables or passages of the source.

Columns and labels:
Assay in all cases: ELISA
[1] = target: T1, Cry4Ba-domain II fragment (Bacillus thuringiensis subsp. …, UniProt P05519 286-470)
T1 sequence: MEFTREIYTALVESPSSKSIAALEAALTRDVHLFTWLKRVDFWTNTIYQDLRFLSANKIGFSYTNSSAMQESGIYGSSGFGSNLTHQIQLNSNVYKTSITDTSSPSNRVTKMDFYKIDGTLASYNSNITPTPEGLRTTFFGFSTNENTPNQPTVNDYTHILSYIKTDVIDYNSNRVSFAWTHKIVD

[2] = target: T2, Cry4Ba-domain III fragment (Bacillus thuringiensis subsp. …)
T2 sequence (P05519 whole entry, looked up): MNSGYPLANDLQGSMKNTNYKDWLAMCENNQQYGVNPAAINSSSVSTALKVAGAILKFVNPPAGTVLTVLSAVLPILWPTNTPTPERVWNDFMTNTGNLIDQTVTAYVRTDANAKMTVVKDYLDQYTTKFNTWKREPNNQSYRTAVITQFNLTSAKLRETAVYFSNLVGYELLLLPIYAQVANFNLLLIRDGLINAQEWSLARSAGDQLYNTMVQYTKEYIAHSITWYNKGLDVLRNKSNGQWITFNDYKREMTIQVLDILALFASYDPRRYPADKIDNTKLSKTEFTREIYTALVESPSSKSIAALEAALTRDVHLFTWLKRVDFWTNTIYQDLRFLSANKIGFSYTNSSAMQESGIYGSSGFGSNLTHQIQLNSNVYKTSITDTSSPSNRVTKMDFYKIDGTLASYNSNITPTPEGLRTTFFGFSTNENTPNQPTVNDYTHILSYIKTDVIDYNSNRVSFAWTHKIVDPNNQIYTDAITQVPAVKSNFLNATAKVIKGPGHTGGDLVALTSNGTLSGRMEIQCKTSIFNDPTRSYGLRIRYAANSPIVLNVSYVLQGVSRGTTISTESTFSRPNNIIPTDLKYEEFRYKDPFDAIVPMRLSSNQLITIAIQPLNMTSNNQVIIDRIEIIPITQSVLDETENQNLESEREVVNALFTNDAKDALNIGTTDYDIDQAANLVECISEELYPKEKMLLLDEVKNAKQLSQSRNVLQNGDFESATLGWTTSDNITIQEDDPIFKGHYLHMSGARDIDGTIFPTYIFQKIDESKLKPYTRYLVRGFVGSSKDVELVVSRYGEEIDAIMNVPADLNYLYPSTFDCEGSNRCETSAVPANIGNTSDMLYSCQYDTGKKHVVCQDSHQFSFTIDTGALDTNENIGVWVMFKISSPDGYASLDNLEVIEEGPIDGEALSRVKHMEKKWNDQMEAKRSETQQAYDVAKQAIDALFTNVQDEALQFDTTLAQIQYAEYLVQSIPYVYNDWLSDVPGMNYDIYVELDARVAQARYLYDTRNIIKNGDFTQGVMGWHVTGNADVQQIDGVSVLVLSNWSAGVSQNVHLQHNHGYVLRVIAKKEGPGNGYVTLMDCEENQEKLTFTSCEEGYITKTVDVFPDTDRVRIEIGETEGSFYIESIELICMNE

[3] = target: T1, Cry4Ba-domain II fragment; remark: listed apart in the source

B1: Aedes aegypti membrane-bound alkaline phosphatase (Aa-mALP) (receptor)
chain: MTLYRSRAANMSRLRFDVSVWVMVTMCVLSARNCWAQGEYDPNYWNQQAHDLLFEKKDYTMQKVNIAKNIIVFVGSGMSQATVTAARTHKGGENATFPFEQLKWSGNARTYCVDSRVPDSACASTAFLTGVKSNLGTVAVHPNVKRGDCVATSDKVKQLESIAKWALAEGRVVGFATTSRVTAGSNAALYAHSADKDWENDASVTAAGCNATQVNDIAYQLINGDVGKHFKVIFGGGRKNFIPNTETDESGARGLRTDGKNLIQEWKESKTGNAVYITTNSELGALNTTNIDYLMGLFSYDRLPYAADMGEEPNKETPPLVRMVHYSLEMLQKKEHSGGFLLFVEDGNIQEAHKENKPIKAFEQVKHYANAFNMAHMMVSEANTLLISMNDVGSTLSIPGYPARDTDILTEAGTSDKDSKPYLSLAYATGPSYDSYYQPNEGRVNPLAVLQGTPTQKEQTCSAAVPMSEGVNGGEDASVYATGPWAFMFSGGYEQNFIAHAISFASCITDVCGGASSVVVSSAALLLALMVRVFA
Kd [1]: 118 nM | Kd [2]: 118 ± 8.1 nM | Kd [3]: 116 nM
